Test results from patent publication US7923535B2, “Tryptophan as a functional replacement for ADP-ribose-arginine in recombinant proteins” (The United States of America as represented by the …, priority 2002, dated 2011).

Columns and labels:
A549 cells [1] = assay: IL-8 production by A549 cells (indirect ELISA); type: cell-based; conditions: concentrations of 0.75 and 1.5 μM; 12 or 24 hours; compared with the unmodified peptide
Procedure: […] Culture medium is sampled after 12 or 24 hours of incubation and IL-8 content is assayed by indirect ELISA according to the manufacturer's instructions (R & D System Inc. Minneapolis, Minn.).

CD3^+ T-cells = assay: Chemotaxis assay; type: cell-based, human; conditions: 0.025 to 25 nM in lower chamber, 4 hours, 37° C.
Procedure: CD3^+ T-cells are isolated from human peripheral blood prepared by leukapheresis (NIH, Department of Transfusion Medicine, Bethesda, Md.) (Chertov et al., J. Biol. Chem. 271:2935-2940, 1996) and suspended in migration medium (RPMI 1640, 0.5% bovine serum albumin, 25 mM HEPES). Inserts coated with collagen IV (Becton Dickinson Labware, Bedford, Mass.) are placed into 24-well culture plates to form upper and lower chambers in each well. Upper chambers are wetted with migration medium, then 500 μl of migration medium with or without ADP-ribosyl-HNP-1, HNP-1, or with HNP-1 with either an R:W substitution or an R:F substitution (0.025 to 25 nM) are added to the lower chamber. Cells are added to the upper chamber and plates are incubated at 37° C. in 5% CO2 for 4 hours. Lymphocytes that migrate to the lower chamber are harvested by centrifugation and counted in a hematocytometer.

A549 cells [2] = assay: Chromium release assay (defensin cytotoxicity); type: cell-based; conditions: 1.5 to 24 μM, 18 hours, 37° C., serum-free RPMI; compared with unmodified HNP-1
Procedure: Chromium-labeled A549 cells (American Type Culture Collection) were incubated (18 hours, 37° C.) in 100 μl of serum-free RPMI (Gibco Fluids Inc., Rockville, Md.) containing HNP-1, ADP-ribosyl-HNP-1, or HNP-1 with either an R:W substitution or an R:F substitution (1.5 to 24 μM) to quantify defensin cytotoxicity. Cytotoxicity is measured as the amount of chromium released from the cells (Panyutich et al., “Human neutrophil defensins and serpins form complexes and inactivate each other,” Am. J. Respir. Cell. Mol. Biol. 12:351-357, 1995).

[3] = test system: Escherichia coli ATCC43827; conditions: compared with unmodified HNP-1; see PCT/US03/04649; cited from earlier work
HNP-1 = biological target: T1, HNP-1 (Homo sapiens, UniProt P59665); assay: Blocking of HNP-1 cytotoxic activity (radial diffusion and chromium release assays after pre-incubation with HNP-1); type: cell-based; conditions: pre-incubated 1 hour at 37° C. with HNP-1 (100 nM, E. coli; 12 μM, chromium release)
T1 sequence (P59665 65-94 limits assumed): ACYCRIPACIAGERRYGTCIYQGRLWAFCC
Procedure: HNP-1 (100 nM) is incubated for 1 hour at 37° C. with ADP-ribosylated HNP-1, or HNP-1 with either an R:W substitution or an R:F substitution (0-800 nM) before the initiation of the cytotoxicity assay on E. coli.
HNP-1 (12 μM) is incubated with ADP-ribosyl-HNP-1, or HNP-1 with either an R:W substitution or an R:F substitution (1.5-12 μM) for 1 hour at 37° C. before the initiation of the chromium release assay.

In the case of “ADP-ribosylated HNP-1: human neutrophil peptide HNP-1 (alpha defensin) with ADP-ribosylated arginine”, the IL-8 release (A549 cells [1]) is reported as “significantly higher”, the “ability to recruit T cells” value (CD3^+ T-cells) is reported as “retain their ability to recruit T cells” and the “cytotoxicity for A549 cells (chromium released)” value (A549 cells [2]) is reported as “less cytotoxic than unmodified HNP-1”. The “cytotoxicity for E. coli ATCC43827 in the radial diffusion assay” value [3] was “less cytotoxic than unmodified HNP-1” and the “effect on the cytotoxic activity of HNP-1” value (HNP-1) was “blocks the cytotoxic activity of HNP-1 in a concentration-dependent manner”.
